Measured values from article PMC7775154.

Molecular target: catalase (human) (UniProt P04040)
Chain of UniProt P04040 (P04040 5-501): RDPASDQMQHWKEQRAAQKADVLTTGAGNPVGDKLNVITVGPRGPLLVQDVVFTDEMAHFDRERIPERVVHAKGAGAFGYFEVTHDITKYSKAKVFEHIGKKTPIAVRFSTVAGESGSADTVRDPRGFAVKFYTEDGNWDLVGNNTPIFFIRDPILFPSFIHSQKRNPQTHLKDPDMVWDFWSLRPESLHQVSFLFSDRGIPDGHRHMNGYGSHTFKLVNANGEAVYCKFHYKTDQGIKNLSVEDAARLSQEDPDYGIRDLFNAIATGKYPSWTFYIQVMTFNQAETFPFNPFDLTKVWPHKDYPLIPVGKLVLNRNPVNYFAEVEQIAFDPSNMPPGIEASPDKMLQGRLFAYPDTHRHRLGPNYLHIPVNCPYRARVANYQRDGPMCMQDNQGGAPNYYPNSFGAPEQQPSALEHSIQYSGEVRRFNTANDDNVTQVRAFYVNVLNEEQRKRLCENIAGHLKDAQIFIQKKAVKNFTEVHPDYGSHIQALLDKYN

H2O2 level in the blood of healthy controls after a 2 h incubation with E22K (H2O2 kit): 86.5
Substance: Aβ42 E22K (Italian type mutation, glutamic acid 22-to-lysine) (peptide)
